Measured values taken from publication PMC3182250 (PLoS ONE, 2011).

B1: Kv7.3 CaM-binding site (construct of the unpublished KD not stated) (domain or fragment)
chain: not shown
B2: Kv7.2 CaM-binding site (construct of the unpublished KD not stated) (domain or fragment)
chain: not shown
notes: the construct may be that of m1

Biological target: T1, Ca2+-calmodulin (of the unpublished KD) ( (rat cDNA cloned), UniProt P0DP29 1-149)
T1 construct: also called Ca2+-CaM
Assay: not stated; unpublished ('A.A. in preparation'); affinity of the Kv7 CaM-binding site for Ca2+-CaM

Binder	Kd [nM]
B1	~25
B2	~25
